Key:
Test in all cases: purified protein
Assay type in all cases: biochemical, Glycine max
Conditions in all cases: 50 mM Na2HPO4-citric acid buffer, optimal pH 5.5 and temperature 42 °C, apparent Km, substrate 1.25-80 µM
purified protein [1] = substrate: CC1(C)C[C@H]2C3=CC[C@@H]4[C@@]5(C)CC[C@H](O[C@@H]6O[C@H](C(=O)O)[C@@H](O)[C@H](O)[C@H]6O[C@@H]6O[C@H](CO)[C@H](O)[C@H](O)[C@H]6O)[C@](C)(CO)[C@@H]5CC[C@@]4(C)[C@]3(C)CC[C@@]2(C)[C@H](O[C@@H]2OC[C@H](O)[C@H](O)[C@H]2O)[C@@H]1O
purified protein [2] = substrate: CC1(C)C[C@H]2C3=CC[C@@H]4[C@@]5(C)CC[C@H](O[C@@H]6O[C@H](C(=O)O)[C@@H](O)[C@H](O)[C@H]6O[C@@H]6O[C@H](CO)[C@H](O)[C@H](O)[C@H]6O[C@@H]6O[C@H](CO)[C@@H](O)[C@H](O)[C@H]6O)[C@](C)(CO)[C@@H]5CC[C@@]4(C)[C@]3(C)CC[C@@]2(C)[C@H](O[C@@H]2OC[C@H](O)[C@H](O)[C@H]2O)[C@@H]1O
purified protein [3] = substrate: C[C@@H]1O[C@@H](O[C@H]2[C@H](O[C@H]3[C@H](O[C@H]4CC[C@@]5(C)[C@@H](CC[C@]6(C)[C@@H]5CC=C5[C@@H]7CC(C)(C)[C@@H](O)[C@@H](O[C@@H]8OC[C@H](O)[C@H](O)[C@H]8O)[C@]7(C)CC[C@]56C)[C@@]4(C)CO)O[C@H](C(=O)O)[C@@H](O)[C@@H]3O)O[C@H](CO)[C@H](O)[C@@H]2O)[C@H](O)[C@H](O)[C@H]1O

B1: GmSSBG1 (SSBG1Δ24; GmBGLU13) (Glycine max) (protein)
chain: LDLSFLPSDFLFGIASSSYQYEGAYKSDGKGLSNWDNYTHGPGRSVIMDGSNGDIAIDHYHRYLEDIDLMETLGVNSYRLSLSWARILPKGRFGEPNHAGIEFYNRLIDVLLLKGIQPFVTLSHYDIPQELEDRYGSWLSPQLQEDFAFYADLCFKTFGDRVKYWVTFNEPNFLVSLGYRSGLYPPCRCSGQLAMAKCSEGDSEKEPFVAAHNVILSHAAAVDIYRTKYQTEQKGSIGIVLQHEWFEPMSNSTADKLASERARAFNFNWFLDPIIFGKYPTEMENVLGSLLPKFSSYEKEKLKRGLDFIGVNYYTAFYVQDCMYSACKPGPGISRTEGSYKKSGEKNGVPIGEPTPFSWFNIYPDGMEKTVTYVRDRYNNTPIFLTENGYAEEVDPNFTSEEHLNDFKRIKYMVDHIEALLAAIRKGADVRGYFAWTLIDSFEWIYGYTVRYGFHHVDYATLKRTPRLSASWYKQLLVQYKKTFLLGTSMTGHEKLVQHT
notes: N-terminal 24-residue signal peptide removed (SSBG1Δ24); MBP fusion from pMAL-c2x, E. coli BL21(DE3), amylose resin; tag removal not mentioned
B1 gave a Km (purified protein [1]) of 28.88 µM, a kcat (purified protein [1]) of 0.0018 s⁻¹ and a Km (purified protein [2]) of 46.51 µM. For the same protein, the kcat (purified protein [2]) was 0.0040 s⁻¹, the Km (purified protein [3]) was 165.90 µM and the kcat (purified protein [3]) was 0.0072 s⁻¹.
